{"source": "patent US20220289795", "about": "“EFFICIENT METHOD FOR PREPARING PPR PROTEIN AND USE OF THE SAME” (EditForce, Inc., published 2022)", "assay_in_all_cases": "ELONA; RPB-ELISA", "key": {"[1]": {"biological_target": "T1, v3.1_PPR14 (Artificial Sequence)", "T1 chain": "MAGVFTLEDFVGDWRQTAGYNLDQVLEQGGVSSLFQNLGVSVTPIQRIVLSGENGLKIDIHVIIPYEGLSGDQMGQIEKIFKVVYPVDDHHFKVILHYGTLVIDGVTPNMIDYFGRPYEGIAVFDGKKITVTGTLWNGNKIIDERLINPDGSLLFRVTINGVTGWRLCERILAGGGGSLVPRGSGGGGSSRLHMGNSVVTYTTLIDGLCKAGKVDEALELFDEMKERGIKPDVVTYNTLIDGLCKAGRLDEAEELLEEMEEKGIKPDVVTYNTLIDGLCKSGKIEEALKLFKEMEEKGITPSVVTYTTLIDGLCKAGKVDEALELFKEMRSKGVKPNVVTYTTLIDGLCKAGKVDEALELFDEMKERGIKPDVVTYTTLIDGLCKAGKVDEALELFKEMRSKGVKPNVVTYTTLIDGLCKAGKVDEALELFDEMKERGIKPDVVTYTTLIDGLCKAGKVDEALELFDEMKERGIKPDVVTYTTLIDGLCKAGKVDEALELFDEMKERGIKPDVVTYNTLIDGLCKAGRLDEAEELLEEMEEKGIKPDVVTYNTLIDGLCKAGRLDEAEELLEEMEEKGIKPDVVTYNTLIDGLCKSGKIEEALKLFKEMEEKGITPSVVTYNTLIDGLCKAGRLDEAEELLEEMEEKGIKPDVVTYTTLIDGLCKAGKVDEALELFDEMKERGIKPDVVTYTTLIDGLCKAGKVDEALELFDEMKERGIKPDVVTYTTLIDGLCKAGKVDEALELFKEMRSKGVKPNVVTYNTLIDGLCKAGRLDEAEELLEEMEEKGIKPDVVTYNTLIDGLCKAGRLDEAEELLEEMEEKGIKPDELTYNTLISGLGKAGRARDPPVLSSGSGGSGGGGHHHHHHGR", "details": "tags: luciferase fusion; label: 5'-biotin"}, "[2]": {"biological_target": "T2, NL_v2_PPR14 (Artificial Sequence)", "T2 chain": "T1 chain with K318D, K388D, K738D", "details": "tags: N-term luciferase, C-term 6xHis; label: 5'-biotin"}, "[3]": {"biological_target": "T3, NL_v2_PPR15 (Artificial Sequence)", "T3 chain": "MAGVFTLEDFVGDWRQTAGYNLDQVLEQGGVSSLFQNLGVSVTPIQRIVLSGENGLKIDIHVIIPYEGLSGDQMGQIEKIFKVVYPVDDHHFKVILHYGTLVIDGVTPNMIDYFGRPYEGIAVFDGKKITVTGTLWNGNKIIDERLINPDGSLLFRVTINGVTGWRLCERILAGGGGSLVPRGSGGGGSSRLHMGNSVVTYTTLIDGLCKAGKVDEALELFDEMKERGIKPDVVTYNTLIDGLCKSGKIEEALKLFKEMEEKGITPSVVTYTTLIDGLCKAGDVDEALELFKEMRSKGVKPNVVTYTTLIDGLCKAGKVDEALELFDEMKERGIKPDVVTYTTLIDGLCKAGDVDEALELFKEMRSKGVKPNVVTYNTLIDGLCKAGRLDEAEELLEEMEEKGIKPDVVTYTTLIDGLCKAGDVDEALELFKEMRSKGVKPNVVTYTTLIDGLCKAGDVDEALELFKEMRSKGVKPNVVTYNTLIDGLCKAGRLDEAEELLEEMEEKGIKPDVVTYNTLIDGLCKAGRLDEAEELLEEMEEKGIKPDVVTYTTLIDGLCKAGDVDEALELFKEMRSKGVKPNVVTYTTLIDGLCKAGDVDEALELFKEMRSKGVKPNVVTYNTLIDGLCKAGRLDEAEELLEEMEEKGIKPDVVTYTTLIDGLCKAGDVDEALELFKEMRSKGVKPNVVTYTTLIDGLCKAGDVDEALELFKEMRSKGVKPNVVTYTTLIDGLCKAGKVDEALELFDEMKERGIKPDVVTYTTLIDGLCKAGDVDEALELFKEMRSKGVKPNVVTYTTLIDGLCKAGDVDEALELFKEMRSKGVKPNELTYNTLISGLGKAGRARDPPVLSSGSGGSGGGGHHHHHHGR", "details": "tags: N-term luciferase, C-term 6xHis; label: 5'-biotin"}, "[4]": {"biological_target": "T4, v3.1_PPR15 (Artificial Sequence)", "T4 chain": "T3 chain with D283K, D353K, D423K, D458K, D563K, D598K, D668K, D703K, D773K, D808K", "details": "tags: luciferase fusion; label: 5'-biotin"}, "[5]": {"biological_target": "T5, v3.1_PPR13 (Artificial Sequence)", "T5 chain": "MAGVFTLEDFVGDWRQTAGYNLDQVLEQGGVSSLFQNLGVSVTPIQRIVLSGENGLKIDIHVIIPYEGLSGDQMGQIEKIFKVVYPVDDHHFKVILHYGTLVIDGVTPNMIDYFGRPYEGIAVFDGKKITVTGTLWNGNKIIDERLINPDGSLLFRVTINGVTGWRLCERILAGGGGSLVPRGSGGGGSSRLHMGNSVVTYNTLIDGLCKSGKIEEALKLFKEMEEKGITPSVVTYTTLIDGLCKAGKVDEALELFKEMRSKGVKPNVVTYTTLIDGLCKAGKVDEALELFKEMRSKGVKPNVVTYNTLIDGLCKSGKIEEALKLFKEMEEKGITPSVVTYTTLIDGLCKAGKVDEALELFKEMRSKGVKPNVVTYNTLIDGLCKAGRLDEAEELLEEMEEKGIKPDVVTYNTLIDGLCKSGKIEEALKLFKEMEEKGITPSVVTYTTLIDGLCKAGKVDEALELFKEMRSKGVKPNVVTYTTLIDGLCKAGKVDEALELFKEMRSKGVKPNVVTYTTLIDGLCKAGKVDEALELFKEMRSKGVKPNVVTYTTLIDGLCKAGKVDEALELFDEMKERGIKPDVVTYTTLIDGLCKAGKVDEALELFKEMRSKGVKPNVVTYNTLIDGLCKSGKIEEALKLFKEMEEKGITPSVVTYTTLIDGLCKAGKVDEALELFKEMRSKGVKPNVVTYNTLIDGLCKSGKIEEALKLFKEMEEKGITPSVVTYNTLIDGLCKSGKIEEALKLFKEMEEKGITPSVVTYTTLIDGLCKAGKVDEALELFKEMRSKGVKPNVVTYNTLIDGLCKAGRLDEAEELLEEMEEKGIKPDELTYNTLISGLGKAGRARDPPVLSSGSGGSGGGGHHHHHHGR", "details": "tags: luciferase fusion; label: 5'-biotin"}, "[6]": {"biological_target": "T6, NL_v2_PPR13 (Artificial Sequence)", "T6 chain": "T5 chain with K248D, K283D, K353D, K458D, K493D, K528D, K598D, K668D, K773D", "details": "tags: N-term luciferase, C-term 6xHis; label: 5'-biotin"}}, "note": "Changes are numbered by the printed parent chain.", "data": [{"binder": "GACAUGCGUCAGAGGGUUCUGGAUUGACUG (ssRNA)", "note": "[RNA_14]", "values": [{"measurement": "binding signal", "setting": "[1]", "value": "2.5e+07", "unit": "luminescence"}, {"measurement": "binding signal", "setting": "[2]", "value": "2.5e+07", "unit": "luminescence"}]}, {"binder": "GACAUGCGCAGAUAAUUAAUAAGAAGACUG (ssRNA)", "note": "[RNA_15]", "values": [{"measurement": "binding signal", "setting": "[3]", "value": "1.3e+07", "unit": "luminescence"}, {"measurement": "binding signal", "setting": "[4]", "value": "3.2e+07", "unit": "luminescence"}]}, {"binder": "GACAUGCCAACAUCAAAGACACCAUGACUG (ssRNA)", "note": "[RNA_13]", "values": [{"measurement": "binding signal", "setting": "[5]", "value": "4e+07", "unit": "luminescence"}, {"measurement": "binding signal", "setting": "[6]", "value": "2.3e+06", "unit": "luminescence"}]}]}
